Residue numbers refer to the chain shown, from its start.

Sequences and labels used below:
T1: human GM-CSFRα, full length on cells (human, UniProt P15509 23-400)
T1 sequence: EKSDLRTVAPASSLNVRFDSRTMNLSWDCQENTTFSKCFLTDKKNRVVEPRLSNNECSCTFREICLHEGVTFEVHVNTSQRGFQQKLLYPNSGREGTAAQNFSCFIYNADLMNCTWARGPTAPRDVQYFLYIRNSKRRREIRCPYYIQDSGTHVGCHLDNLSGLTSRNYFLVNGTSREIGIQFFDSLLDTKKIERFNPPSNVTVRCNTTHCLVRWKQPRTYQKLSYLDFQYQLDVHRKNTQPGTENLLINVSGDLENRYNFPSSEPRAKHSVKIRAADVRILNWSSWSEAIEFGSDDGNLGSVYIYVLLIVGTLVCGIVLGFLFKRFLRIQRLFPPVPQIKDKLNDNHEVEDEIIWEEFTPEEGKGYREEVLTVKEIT

B1: E35-scFv LY32A (scFv, V domains shown)
VH: QMQLVQSGAEVKKPGASVKVSCKVSGYTLTELSIHWVRQAPGKGLEWMGGFDPEDGETIYAQKFQGRVTMTGDTSTDTAYLELSSLRSEDTALYYCATGRYTSLATTYGFDYWGQGTLVTVSS
VL: EIVMTQSPATLSLSPGERATLSCRASQSVSSALAWYQQKPGQAPRLLIYGASSRATGIPDRFSGSGSGTDFTLTISRLEPEDFAVYYCQQYDNWPYTFGQGTKLEIK
B2: E35-scFv LG50A (scFv, V domains shown)
VH: B1 VH
VL: B1 VL with A32Y, G50A
B3: E35-scFv LG50D (scFv, V domains shown)
VH: B1 VH
VL: B1 VL with A32Y, G50D
B4: E35-scFv LA51V (scFv, V domains shown)
VH: B1 VH
VL: B1 VL with A32Y, A51V
B5: E35-scFv LS52N (scFv, V domains shown)
VH: B1 VH
VL: B1 VL with A32Y, S52N
B6: E35-scFv LA51N (scFv, V domains shown)
VH: B1 VH
VL: B1 VL with A32Y, A51N
B7: E35-scFv LG50T (scFv, V domains shown)
VH: B1 VH
VL: B1 VL with A32Y, G50T
B8: E35-scFv LS52P (scFv, V domains shown)
VH: B1 VH
VL: B1 VL with A32Y, S52P
B9: E35-scFv LG50I (scFv, V domains shown)
VH: B1 VH
VL: B1 VL with A32Y, G50I
B10: E35-scFv LA51C (scFv, V domains shown)
VH: B1 VH
VL: B1 VL with A32Y, A51C
B11: E35-scFv LA51L (scFv, V domains shown)
VH: B1 VH
VL: B1 VL with A32Y, A51L
B12: E35-scFv LS52R (scFv, V domains shown)
VH: B1 VH
VL: B1 VL with A32Y, S52R
B13: E35-scFv LS52A (scFv, V domains shown)
VH: B1 VH
VL: B1 VL with A32Y, S52A
B14: E35-scFv LS52T (scFv, V domains shown)
VH: B1 VH
VL: B1 VL with A32Y, S52T
B15: E35-scFv LA51F (scFv, V domains shown)
VH: B1 VH
VL: B1 VL with A32Y, A51F
B16: E35-scFv LY32E (scFv, V domains shown)
VH: B1 VH
VL: B1 VL with A32E
B17: E35-scFv LY32P (scFv, V domains shown)
VH: B1 VH
VL: B1 VL with A32P
B18: E35-scFv LS52H (scFv, V domains shown)
VH: B1 VH
VL: B1 VL with A32Y, S52H
B19: E35-scFv LY32N (scFv, V domains shown)
VH: B1 VH
VL: B1 VL with A32N
B20: E35-scFv LA51K (scFv, V domains shown)
VH: B1 VH
VL: B1 VL with A32Y, A51K
B21: E35-scFv LS52W (scFv, V domains shown)
VH: B1 VH
VL: B1 VL with A32Y, S52W
B22: E35-scFv LG50Q (scFv, V domains shown)
VH: B1 VH
VL: B1 VL with A32Y, G50Q
B23: E35-scFv LA51T (scFv, V domains shown)
VH: B1 VH
VL: B1 VL with A32Y, A51T
B24: E35-scFv LA51R (scFv, V domains shown)
VH: B1 VH
VL: B1 VL with A32Y, A51R
B25: E35-scFv LY32C (scFv, V domains shown)
VH: B1 VH
VL: B1 VL with A32C
B26: E35-scFv LA51H (scFv, V domains shown)
VH: B1 VH
VL: B1 VL with A32Y, A51H
B27: E35-scFv LS52Q (scFv, V domains shown)
VH: B1 VH
VL: B1 VL with A32Y, S52Q
B28: E35-scFv LA51Q (scFv, V domains shown)
VH: B1 VH
VL: B1 VL with A32Y, A51Q
B29: E35-scFv LY32G (scFv, V domains shown)
VH: B1 VH
VL: B1 VL with A32G
B30: E35-scFv LA51M (scFv, V domains shown)
VH: B1 VH
VL: B1 VL with A32Y, A51M
B31: E35-scFv LA51E (scFv, V domains shown)
VH: B1 VH
VL: B1 VL with A32Y, A51E
B32: E35-scFv LS52Y (scFv, V domains shown)
VH: B1 VH
VL: B1 VL with A32Y, S52Y
B33: E35-scFv LS52L (scFv, V domains shown)
VH: B1 VH
VL: B1 VL with A32Y, S52L
B34: E35-scFv LY32R (scFv, V domains shown)
VH: B1 VH
VL: B1 VL with A32R
B35: E35-scFv LS52F (scFv, V domains shown)
VH: B1 VH
VL: B1 VL with A32Y, S52F
B36: E35-scFv LS52D (scFv, V domains shown)
VH: B1 VH
VL: B1 VL with A32Y, S52D
B37: E35-scFv LY32K (scFv, V domains shown)
VH: B1 VH
VL: B1 VL with A32K
B38: E35-scFv LA51S (scFv, V domains shown)
VH: B1 VH
VL: B1 VL with A32Y, A51S
B39: E35-scFv LA51P (scFv, V domains shown)
VH: B1 VH
VL: B1 VL with A32Y, A51P
B40: E35-scFv LA51G (scFv, V domains shown)
VH: B1 VH
VL: B1 VL with A32Y, A51G
B41: E35-scFv LA51W (scFv, V domains shown)
VH: B1 VH
VL: B1 VL with A32Y, A51W

This experiment addresses T1, human GM-CSFRα, full length on cells. Put plainly: cell-based or functional assay.
For the molecule B1, the “IC50, TF-1 cell proliferation” value came out at 1.35 µg/mL.
Take B2: the “IC50, TF-1 cell proliferation” value is 0.5 µg/mL.
B3: the “IC50, TF-1 cell proliferation” value is 0.88 µg/mL.
Turning to B4, the “IC50, TF-1 cell proliferation” value was determined as 0.36 µg/mL.
The same measure for B5: 0.253 µg/mL.
B6: the “IC50, TF-1 cell proliferation” value was 0.36 µg/mL.
With B7, the “IC50, TF-1 cell proliferation” value was 0.25 µg/mL.
With B8, the “IC50, TF-1 cell proliferation” value came out at 1.05 µg/mL.
In the case of B9 it was 1.08 µg/mL; in that of B10, 0.37 µg/mL; in that of B11, 0.5 µg/mL.
Take B12: the “IC50, TF-1 cell proliferation” value was determined as 0.089 µg/mL.
As for B13, the “IC50, TF-1 cell proliferation” value was 0.068 µg/mL.
In the case of B14 it was 0.136 µg/mL; in that of B15, 0.294 µg/mL.
B16: the “IC50, TF-1 cell proliferation” value amounted to 3.75 µg/mL.
With B17, the “IC50, TF-1 cell proliferation” value was determined as 5.15 µg/mL.
Turning to B18, the “IC50, TF-1 cell proliferation” value was 0.192 µg/mL.
In the case of B19, the “IC50, TF-1 cell proliferation” value came to 2.05 µg/mL.
Consider B20, for which the “IC50, TF-1 cell proliferation” value is 0.168 µg/mL.
The same measure for B21: 0.073 µg/mL; for B22: 0.93 µg/mL; for B23: 0.18 µg/mL.
For the molecule B24, the “IC50, TF-1 cell proliferation” value is 0.12 µg/mL.
The same measure for B25: 1.9 µg/mL; for B26: 0.162 µg/mL.
As to B27, the “IC50, TF-1 cell proliferation” value was 0.138 µg/mL.
As to B28, the “IC50, TF-1 cell proliferation” value was determined as 18.2 µg/mL.
In the case of B29 it was 1.35 µg/mL; in that of B30, 0.264 µg/mL.
In the case of B31 it was 0.81 µg/mL; in that of B32, 0.181 µg/mL.
Consider B33, for which the “IC50, TF-1 cell proliferation” value worked out at 0.115 µg/mL.
B34: the “IC50, TF-1 cell proliferation” value turned out to be 3.12 µg/mL.
In the case of B35, the “IC50, TF-1 cell proliferation” value was determined as 0.167 µg/mL.
For the molecule B36, the “IC50, TF-1 cell proliferation” value is 1.75 µg/mL.
Take B37: the “IC50, TF-1 cell proliferation” value amounted to 9.6 µg/mL.
In the case of B38 it was 0.18 µg/mL; in that of B39, 2.1 µg/mL.
As for B40, the “IC50, TF-1 cell proliferation” value was 0.12 µg/mL.
For B41, the “IC50, TF-1 cell proliferation” value was 1.59 µg/mL.

For the origin of these results see patent US20230002496A1 (STAIDSON BEIJING BIOPHARMACEUTICALS, published 2023).
